Laboratory results taken from paper PMC8420271 (The EMBO Journal, 2021).

Biological target: His-tagged SARS-CoV-2 nucleocapsid (SARS-CoV-2, UniProt P0DTC9 1-419)
Assay: pull-down

B1: GST-GSDMD mutant lacking amino acids 265-284 (natural protein)
chain: MGSAFERVVRRVVQELDHGGEFIPVTSLQSSTGFQPYCLVVRKPSSSWFWKPRYKCVNLSIKDILEPDAAEPDVQRGRSFHFYDAMDGQIQGSVELAAPGQAKIAGGAAVSDSSSTSMNVYSLSVDPNTWQTLLHERHLRQPEHKVLQQLRSRGDNVYVVTEVLQTQKEVEVTRTHKREGSGRFSLPGATCLQGEGQGHLSQKKTVTIPSGSTLAFRVAQLVIDSDLDVLLFPDKKQRTFQPPATGHKRSTSEGAWPQLPSGLSEDFQGLRAEVETISKELELLDRELCQLLLEGLEGVLRDQLALRALEEALEQGQSLGPVEPLDGPAGAVLECLVLSSGMLVPELAIPVVYLLGALTMLSETQHKLLAEALESQTLLGPLELVGSLLEQSAPWQERSTMSLPPGLLGNSWGEGAPAWVLLDECGLELGEDTPHVCWEPQAQGRMCALYASLALLSGLSQEPH
binding result: binds
